In the Human Domainome abundance scans (Beltran et al. 2025):

B1: Transcription factor SOX-11, residues 50 to 117; numbered along this chain, P35716 (parent)
chain: KRPMNAFMVWSKIERRKIMEQSPDMHNAEISKRLGKRWKMLKDSEKIPFIREAERLRLKHMADYPDYK
B2: Cell division cycle and apoptosis regulator protein 1, residues 625 to 674; numbered along this chain, Q8IX12 (parent)
chain: ISTPTHWSKLDPKTMKVNDLRKELESRALSSKGLKSQLIARLTKQLKVEE

Variants of: B1
Assay: abundance fitness (aPCA) (normalised: wild type 0, dead -1); higher = more abundant; growth selection in yeast, the domain comes from the species named
Settings: Homo sapiens

Abundance fitness, by site and new letter:
H60: L -0.273 | E 0.406 | V -0.047 | N 0.058 | Q 0.222 | Y -0.03 | F -0.078 | D 0.136 | C -0.031 | R -0.227 | G 0.142
F49: I -0.694 | G -0.739 | W -0.256 | L -0.731 | M -0.301 | E -0.792 | A -0.761 | V -0.635 | R -0.767 | S -0.566 | Y 0.048 | T -0.558 | H -0.739 | N -0.881
D63: N 0.113
P48: W -0.577 | E -0.386 | N -0.598 | H -0.355 | V -0.261 | A -0.664 | C -0.634 | I -0.43 | Q -0.24 | R -0.604 | T -0.719 | L -0.572 | S -0.617 | K -0.69 | F -0.285 | G -0.384 | D -0.656
K68: S -0.093 | N 0.163 | Y 0.314 | C 0.354 | T -0.139 | L -0.642
Y67: N 0.203 | S 0.175 | W 0.17 | K -0.007 | T -0.044 | F -0.097 | H 0.089 | A 0.149 | I -0.027 | R -0.163 | D 0.283 | V -0.214 | M 0.222 | C -0.048 | L 0.098 | P 0.151
M61: D 0.09 | N 0.116 | G 0.07 | A 0.144 | Q 0.077 | F -0.292 | K -0.205 | E 0.046 | R 0.033 | T 0.058 | V 0.048 | S 0.047 | H -0.086 | Y -0.096 | I 0.011 | W -0.221 | C 0.107 | P 0.008
K59: A 0.087 | V 0.012 | S -0.017 | D -0.052 | I -0.054 | M 0.039 | Y -0.192 | H 0.106 | P -0.403 | E 0.084 | C -0.099 | T 0.075 | F -0.166 | L 0.12 | N 0.026 | W -0.323
D66: T -0.657 | G -0.027 | E 0.247 | P -0.234 | V -0.545 | Q -0.115 | Y -0.36 | H -0.115 | C -0.278 | L -0.226 | I -0.382 | A -0.206 | F -0.265 | R -0.38 | S -0.368
R51: D -0.129 | I -0.104 | S -0.495 | M 0.141 | K -0.054 | P -0.473 | Y -0.238 | G -0.606 | L -0.125 | Q 0.189 | F -0.411 | A -0.069 | H -0.289 | C -0.304 | V -0.075 | T -0.29

Variants of: B2
Assay: as above
Settings: Homo sapiens

Abundance fitness, by site and new letter:
S2: C 0.029 | Q -0.06 | W -0.083 | G -0.003 | H -0.037 | R -0.021 | I 0.18 | V 0.06 | K 0.096 | N 0.23 | P -0.175 | D 0.064 | M 0.127 | A -0.072 | F 0.103 | T 0.079
T3: G -0.096 | F -0.121 | A -0.203 | D -0.136 | E -0.007 | C -0.025
I1: C -0.398 | E -0.314 | L -0.3 | G -0.261 | W -0.478 | R -0.458 | N -0.33 | M -0.123 | D -0.641 | F 0.207 | K -0.257 | V -0.11 | Y -0.206 | A 0.049 | T -0.145
